These results are taken from the Human Domainome abundance scans (Beltran et al. 2025).

B1: Intersectin-1, residues 909 to 971; numbered along this chain, Q15811 (parent)
chain: QGEKVEGLQAQALYPWRAKKDNHLNFNKNDVITVLEQQDMWWFGEVQGQKGWFPKSYVKLISG

± gives the uncertainty stated by the source.

In this data set the parent is B1. As to the kind of experiment: abundance fitness (aPCA) (normalised: wild type 0, dead -1); higher = more abundant; growth selection in yeast, the domain comes from the species named. Conditions: Homo sapiens.
QREKVEGLQAQALYPWRAKKDNHLNFNKNDVITVLEQQDMWWFGEVQGQKGWFPKSYVKLISG [G2R]: the abundance fitness was -0.38 ± 0.14.
As for QLEKVEGLQAQALYPWRAKKDNHLNFNKNDVITVLEQQDMWWFGEVQGQKGWFPKSYVKLISG [G2L], the abundance fitness was -0.386 ± 0.18.
With QAEKVEGLQAQALYPWRAKKDNHLNFNKNDVITVLEQQDMWWFGEVQGQKGWFPKSYVKLISG [G2A] the figure was -0.028 ± 0.12.
For the variant QDEKVEGLQAQALYPWRAKKDNHLNFNKNDVITVLEQQDMWWFGEVQGQKGWFPKSYVKLISG [G2D], the abundance fitness is -0.265 ± 0.086.
For QNEKVEGLQAQALYPWRAKKDNHLNFNKNDVITVLEQQDMWWFGEVQGQKGWFPKSYVKLISG [G2N], the abundance fitness is -0.175 ± 0.3.
As to QEEKVEGLQAQALYPWRAKKDNHLNFNKNDVITVLEQQDMWWFGEVQGQKGWFPKSYVKLISG [G2E], the abundance fitness is -0.001 ± 0.17.
As for QTEKVEGLQAQALYPWRAKKDNHLNFNKNDVITVLEQQDMWWFGEVQGQKGWFPKSYVKLISG [G2T], the abundance fitness was -0.051 ± 0.2.
With QCEKVEGLQAQALYPWRAKKDNHLNFNKNDVITVLEQQDMWWFGEVQGQKGWFPKSYVKLISG [G2C] the figure was -0.286 ± 0.16; with QKEKVEGLQAQALYPWRAKKDNHLNFNKNDVITVLEQQDMWWFGEVQGQKGWFPKSYVKLISG [G2K], 0.076 ± 0.28.
For QPEKVEGLQAQALYPWRAKKDNHLNFNKNDVITVLEQQDMWWFGEVQGQKGWFPKSYVKLISG [G2P], the abundance fitness was -0.423 ± 0.19.
The result for QSEKVEGLQAQALYPWRAKKDNHLNFNKNDVITVLEQQDMWWFGEVQGQKGWFPKSYVKLISG [G2S] reads -0.018 ± 0.085.
The result for QMEKVEGLQAQALYPWRAKKDNHLNFNKNDVITVLEQQDMWWFGEVQGQKGWFPKSYVKLISG [G2M] reads 0.113 ± 0.29; that for QGGKVEGLQAQALYPWRAKKDNHLNFNKNDVITVLEQQDMWWFGEVQGQKGWFPKSYVKLISG [E3G], -0.165 ± 0.1; that for QGCKVEGLQAQALYPWRAKKDNHLNFNKNDVITVLEQQDMWWFGEVQGQKGWFPKSYVKLISG [E3C], -0.153 ± 0.29.
Turning to QGKKVEGLQAQALYPWRAKKDNHLNFNKNDVITVLEQQDMWWFGEVQGQKGWFPKSYVKLISG [E3K], the abundance fitness was -0.079 ± 0.18.
The result for QGTKVEGLQAQALYPWRAKKDNHLNFNKNDVITVLEQQDMWWFGEVQGQKGWFPKSYVKLISG [E3T] reads -0.305 ± 0.26; that for QGFKVEGLQAQALYPWRAKKDNHLNFNKNDVITVLEQQDMWWFGEVQGQKGWFPKSYVKLISG [E3F], -0.169 ± 0.29.
Turning to QGHKVEGLQAQALYPWRAKKDNHLNFNKNDVITVLEQQDMWWFGEVQGQKGWFPKSYVKLISG [E3H], the abundance fitness is -0.088 ± 0.46.
As to QGMKVEGLQAQALYPWRAKKDNHLNFNKNDVITVLEQQDMWWFGEVQGQKGWFPKSYVKLISG [E3M], the abundance fitness is -0.312 ± 0.27.
QGDKVEGLQAQALYPWRAKKDNHLNFNKNDVITVLEQQDMWWFGEVQGQKGWFPKSYVKLISG [E3D]: the abundance fitness is -0.021 ± 0.26.
As for QGVKVEGLQAQALYPWRAKKDNHLNFNKNDVITVLEQQDMWWFGEVQGQKGWFPKSYVKLISG [E3V], the abundance fitness was -0.293 ± 0.15.
With QGIKVEGLQAQALYPWRAKKDNHLNFNKNDVITVLEQQDMWWFGEVQGQKGWFPKSYVKLISG [E3I], the abundance fitness was 0.237 ± 0.37.
As to QGNKVEGLQAQALYPWRAKKDNHLNFNKNDVITVLEQQDMWWFGEVQGQKGWFPKSYVKLISG [E3N], the abundance fitness came to 0.02 ± 0.17.
With QGAKVEGLQAQALYPWRAKKDNHLNFNKNDVITVLEQQDMWWFGEVQGQKGWFPKSYVKLISG [E3A], the abundance fitness was -0.293 ± 0.13.
With QGSKVEGLQAQALYPWRAKKDNHLNFNKNDVITVLEQQDMWWFGEVQGQKGWFPKSYVKLISG [E3S], the abundance fitness was -0.319 ± 0.25.
With QGWKVEGLQAQALYPWRAKKDNHLNFNKNDVITVLEQQDMWWFGEVQGQKGWFPKSYVKLISG [E3W] the figure was -0.332 ± 0.2.
Regarding QGRKVEGLQAQALYPWRAKKDNHLNFNKNDVITVLEQQDMWWFGEVQGQKGWFPKSYVKLISG [E3R], the abundance fitness is -0.074 ± 0.11.
As for QGQKVEGLQAQALYPWRAKKDNHLNFNKNDVITVLEQQDMWWFGEVQGQKGWFPKSYVKLISG [E3Q], the abundance fitness was found to be 0.026 ± 0.24.
Regarding QGLKVEGLQAQALYPWRAKKDNHLNFNKNDVITVLEQQDMWWFGEVQGQKGWFPKSYVKLISG [E3L], the abundance fitness is -0.268 ± 0.22.
Consider QGEKPEGLQAQALYPWRAKKDNHLNFNKNDVITVLEQQDMWWFGEVQGQKGWFPKSYVKLISG [V5P], for which the abundance fitness is -0.07 ± 0.21.
As for QGEKCEGLQAQALYPWRAKKDNHLNFNKNDVITVLEQQDMWWFGEVQGQKGWFPKSYVKLISG [V5C], the abundance fitness was -0.488 ± 0.29.
With QGEKDEGLQAQALYPWRAKKDNHLNFNKNDVITVLEQQDMWWFGEVQGQKGWFPKSYVKLISG [V5D] the figure was 0.126 ± 0.4; with QGEKGEGLQAQALYPWRAKKDNHLNFNKNDVITVLEQQDMWWFGEVQGQKGWFPKSYVKLISG [V5G], -0.155 ± 0.084.
Take QGEKWEGLQAQALYPWRAKKDNHLNFNKNDVITVLEQQDMWWFGEVQGQKGWFPKSYVKLISG [V5W]: the abundance fitness is -0.106 ± 0.22.
As to QGEKAEGLQAQALYPWRAKKDNHLNFNKNDVITVLEQQDMWWFGEVQGQKGWFPKSYVKLISG [V5A], the abundance fitness is -0.008 ± 0.11.
For the variant QGEKIEGLQAQALYPWRAKKDNHLNFNKNDVITVLEQQDMWWFGEVQGQKGWFPKSYVKLISG [V5I], the abundance fitness was -0.151 ± 0.1.
As to QGEKMEGLQAQALYPWRAKKDNHLNFNKNDVITVLEQQDMWWFGEVQGQKGWFPKSYVKLISG [V5M], the abundance fitness is -0.073 ± 0.49.
On to QGEKHEGLQAQALYPWRAKKDNHLNFNKNDVITVLEQQDMWWFGEVQGQKGWFPKSYVKLISG [V5H], for which the abundance fitness is -0.657 ± 0.31.
For the variant QGEKLEGLQAQALYPWRAKKDNHLNFNKNDVITVLEQQDMWWFGEVQGQKGWFPKSYVKLISG [V5L], the abundance fitness was -0.364 ± 0.14.
In the case of QGEKSEGLQAQALYPWRAKKDNHLNFNKNDVITVLEQQDMWWFGEVQGQKGWFPKSYVKLISG [V5S], the abundance fitness is -0.115 ± 0.2.
Take QGEKTEGLQAQALYPWRAKKDNHLNFNKNDVITVLEQQDMWWFGEVQGQKGWFPKSYVKLISG [V5T]: the abundance fitness is -0.237 ± 0.16.
Consider QGEKEEGLQAQALYPWRAKKDNHLNFNKNDVITVLEQQDMWWFGEVQGQKGWFPKSYVKLISG [V5E], for which the abundance fitness was -0.126 ± 0.17.
